Laboratory results taken from PMC2367712 (Nucleic Acids Research, 2008).

Target: the molecule itself
Experiment: cross-linking

B1: Lsr2 of M. tuberculosis, recombinant, His-tagged at the C-terminal (natural protein)
chain: not shown
- stoichiometry N: 2
